# Reference: paper PMC2699502
# Target: EcoR124I S subunit (HsdS) (UniProt P10485)
# UniProt P10485, sequence (P10485 whole entry): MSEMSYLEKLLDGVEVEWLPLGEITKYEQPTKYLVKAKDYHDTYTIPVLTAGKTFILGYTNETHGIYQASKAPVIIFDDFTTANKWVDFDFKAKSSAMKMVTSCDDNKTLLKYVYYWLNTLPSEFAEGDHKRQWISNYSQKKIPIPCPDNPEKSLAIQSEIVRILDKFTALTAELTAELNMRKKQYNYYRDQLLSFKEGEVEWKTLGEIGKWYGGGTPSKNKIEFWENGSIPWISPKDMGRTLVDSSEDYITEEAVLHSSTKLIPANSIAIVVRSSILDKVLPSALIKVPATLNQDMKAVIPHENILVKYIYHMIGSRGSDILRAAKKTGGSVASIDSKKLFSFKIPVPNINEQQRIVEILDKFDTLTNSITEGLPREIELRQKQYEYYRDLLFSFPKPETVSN
row,Binder,stoichiometry N
1,EcoR124I M subunit (HsdM) (enzyme) MKMTSIQQRAELHRQIWQIANDVRGSVDGWDFKQYVLGALFYRFISENFSSYIEAGDDSICYAKLDDSVITDDIKDDAIKTKGYFIYPSQLFCNVAAKANTNDRLNADLNSIFVAIESSAYGYPSEADIKGLFADFDTTSNRLGNTVKDKNARLAAVLKGVEGLKLGDFNEHQIDLFGDAYEFLISNYAANAGKSGGEFFTPQHVSKLIAQLAMHGQTHVNKIYDPAAGSGSLLLQAKKQFDNHIIEEGFFGQEINHTTYNLARMNMFLHNINYDKFDIKLGNTLTEPHFRDEKPFDAIVSNPPYSVKWIGSDDPTLINDERFAPAGVLAPKSKADFAFVLHALNYLSAKGRAAIVCFPGIFYRGGAEQKIRQYLVDNNYVETVISLAPNLFFGTTIAVNILVLSKHKTDTNVQFIDASELFKKETNNNILTDAHIEQIMQVFASKEDVAHLAKSVAFETVVANDYNLSVSSYVEAKDNREIIDIAELNAELKTTVSKIDQLRKDIDAIVAEIEGCEVQK,2 M per S
2,EcoR124I R subunit (HsdR) (enzyme) MTHQTHTIAESNNFIVLDKYIKAEPTGDSYQSESDLERELIQDLRNQGYEFISVKSQSAMLANVREQLQNLNGVVFNDSEWRRFTEQYLDNPSDGILDKTRKIHIDYICDFIFDDERLENIYLIDKKNLMRNKVQIIQQFEQAGSHANRYDVTILVNGLPLVQIELKKRGVAIREAFNQIHRYSKESFNSENSLFKYLQLFVISNGTDTRYFANTTKRDKNSFDFTMNWAKSDNTLIKDLKDFTATCFQKHTLLNVLVNYSVFDSSQTLLVMRPYQIAATERILWKIKSSFTAKNWSKPESGGYIWHTTGSGKTLTSFKAARLATELDFIDKVFFVVDRKDLDYQTMKEYQRFSPDSVNGSENTAGLKRNLDKDDNKIIVTTIQKLNNLMKAESDLPVYNQQVVFIFDECHRSQFGEAQKNLKKKFKRYYQFGFTGTPIFPENALGSETTASVFGRELHSYVITDAIRDEKVLKFKVDYNDVRPQFKSLETETDEKKLSAAENQQAFLHPMRIQEITQYILNNFRQKTHRTFPGSKGFNAMLAVSSVDAAKAYYATFKRLQEEAANKSATYKPLRIATIFSFAANEEQNAIGEISDETFDTSAMDSSAKEFLDAAIREYNSHFKTNFSTDSNGFQNYYRDLAQRVKNQDIDLLIVVGMFLTGFDAPTLNTLFVDKNLRYHGLMQAFSRTNRIYDATKTFGNIVTFRDLERSTIDAITLFGDKNTKNVVLEKSYTEYMEGFTDAATGEAKRGFMTVVSELEQRFPDPTSIESEKEKKDFVKLFGEYLRAENILQNYDEFATLKALQQIDLSDPVAVEKFKAEHYVDDEKFAELQTIRLPADRKIQDYRSAYNDIRDWQRREKEAEKKEKSTTDWDDVVFEVDLLKSQEINLDYILGLIFEHNRQNKGKGEMIEEVKRLIRSSLGNRAKEGLVVDFIQQTNLDDLPDKASIIDAFFTFAQREQQREAEALIKEENLNEDAAKRYIRTSLKREYATENGTELNETLPKLSPLNPQYKTKKQAVFQKIVSFIEKFKGVGGKI,1 R per S
